Here are results for 6 molecules from patent publication US20220275095A1 (SURROZEN OPERATING, published 2022).

One experiment addresses T1, mouse Fzd5 hinge region (mouse, UniProt Q9EQD0 147-182, limits assumed).
T1 construct: domain: hinge region; also called mFzd5L
T1 peptide (looked up): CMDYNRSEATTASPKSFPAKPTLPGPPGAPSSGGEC
Kind of experiment: SPR. The procedure: (§1) Certain VL and VH clones from Table 1 were PCR amplified from the phage clone and sub-cloned into pcDNA3.1 based mammalian expression vectors (Invitrogen/ThermoFisher) of human kappa or lambda light chain and human IgG1 heavy chain, respectively. Candidate IgGs were purified using Protein A affinity resin. The candidate library was captured on an anti-FC lawn. The capture lawn was prepared by direct amine coupling goat anti-human IgG Fc (Southern Biotech #2048-01) at 8000 RU on a HC200M Carterra sensor chip (Carterra 4297). Capture levels were at least 600 RU for each candidate IgG. Binding to all target peptides was measured at 25° by injecting a concentration series of each peptide in 1×PBST+0.5 mg/mL BSA (TEKnova P1192, VWR V0332). All peptides were injected at 4.12 nM, 12.3 nM, 37 nM, 111 nM, 333 nM, and 1000 nM. Two blank injections were run between each peptide concentration series. Each injection started with a one minute baseline determination, followed by a five minute association phase where peptides were injected, and finished with a 10 minute dissociation phase. Binding data was analyzed using NextGenKIT (Carterra). Blank injections and reference locations were subtracted from all runs prior to fitting a 1:1 binding model to the data. […] Interactions with an Rₘₐₓ less than 15 RU or weaker than 5 μM were considered non-binders.
For orientation: Surface plasmon resonance follows binding to a sensor surface in real time, without labels.

For the next experiment, the target named is T2, mouse Fzd3 hinge region (mouse, UniProt Q61086 133-165, limits assumed).
T2 construct: domain: hinge region; also called mFzd3L
T2 peptide (looked up): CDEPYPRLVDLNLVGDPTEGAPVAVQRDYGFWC
Kind of experiment: SPR. The procedure:
as §1

The next experiment addresses T3, human Fzd5 hinge region (human).
T3 construct: also called hFzd5L
T3 peptide: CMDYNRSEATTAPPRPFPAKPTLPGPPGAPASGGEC
Kind of experiment: SPR. The procedure: as §1

Another experiment deals with T4, mouse Fzd2 hinge region (mouse, UniProt Q9JIP6 155-206, limits assumed).
T4 construct: domain: hinge region; also called mFzd2L
Kind of experiment: SPR. The procedure:
as §1

For the next experiment, the target named is T5, human Fzd9 hinge region (human).
T5 construct: also called hFzd9L; hFzd9
T5 peptide: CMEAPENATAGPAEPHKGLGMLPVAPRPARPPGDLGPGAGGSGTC
Kind of experiment: SPR. The procedure: as §1

Another experiment has as its target T6, mouse Fzd6 hinge region (mouse, UniProt Q61089 129-161, limits assumed).
T6 construct: domain: hinge region; also called mFzd6L
T6 peptide (looked up): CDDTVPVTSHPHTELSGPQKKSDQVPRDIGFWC
The experiment is described as follows: SPR. The procedure: as §1

In another experiment the target is T7, human Fzd10 hinge region (human).
T7 construct: also called hFzd10L
T7 peptide: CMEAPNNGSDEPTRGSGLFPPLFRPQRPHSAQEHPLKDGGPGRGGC
Kind of experiment: SPR. The procedure:
as §1

Another experiment concerns the target T8, mouse Fzd7 hinge region (mouse, UniProt Q61090 160-208, limits assumed).
T8 construct: domain: hinge region; also called mFzd7L
T8 peptide (looked up): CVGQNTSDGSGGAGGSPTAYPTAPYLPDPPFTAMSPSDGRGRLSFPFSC
The experiment is described as follows: SPR. The procedure: as §1

In another experiment the target is T9, human Fzd2 hinge region (human).
T9 construct: also called hFzd2L
T9 peptide: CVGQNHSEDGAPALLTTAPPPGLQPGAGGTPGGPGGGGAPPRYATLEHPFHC
The experiment is described as follows: SPR. The procedure: as §1

The target of a further experiment is T10, human Fzd6 hinge region (human).
T10 construct: also called hFzd6L
T10 peptide: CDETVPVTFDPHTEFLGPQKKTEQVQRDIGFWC
Kind of experiment: SPR. The procedure: as §1

For the next experiment, the target named is T11, mouse Fzd8 hinge region (mouse, UniProt Q61091 148-225, limits assumed).
T11 construct: domain: hinge region; also called mFzd8L; mFzd8
T11 sequence (peptide, looked up): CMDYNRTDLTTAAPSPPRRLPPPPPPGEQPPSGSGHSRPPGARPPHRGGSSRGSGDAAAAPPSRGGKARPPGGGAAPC
Kind of experiment: SPR. The procedure:
as §1

The target of a further experiment is T12, human Fzd3 hinge region (human).
T12 construct: also called hFzd3L
T12 peptide: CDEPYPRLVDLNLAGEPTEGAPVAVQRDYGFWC
The experiment is described as follows: SPR. The procedure: as §1

The next experiment deals with T13, mouse Fzd4 hinge region (mouse, UniProt Q61088 158-181, limits assumed).
T13 construct: domain: hinge region; also called mFzd4L
T13 peptide (looked up): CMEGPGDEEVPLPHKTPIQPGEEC
The experiment is described as follows: SPR. The procedure:
as §1

The target of the next experiment is T14, mouse Fzd9 hinge region (mouse, UniProt Q9R216 153-197, limits assumed).
T14 construct: domain: hinge region; also called mFzd9
T14 peptide (looked up): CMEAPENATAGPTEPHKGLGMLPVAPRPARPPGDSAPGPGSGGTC
Kind of experiment: SPR. The procedure:
as §1

The target in the next experiment is T15, human Fzd4 hinge region (human).
T15 construct: also called hFzd4L
T15 peptide: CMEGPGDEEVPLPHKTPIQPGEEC
Kind of experiment: SPR. The procedure:
as §1

The next experiment addresses T16, mouse Fzd10 hinge region (mouse, UniProt Q8BKG4 148-193, limits assumed).
T16 construct: domain: hinge region; also called mFzd10L
T16 peptide (looked up): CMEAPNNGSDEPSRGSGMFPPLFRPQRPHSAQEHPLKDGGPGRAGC
The experiment is described as follows: SPR. The procedure: as §1

Experiment [1] concerns the target T17, mouse Fzd1 hinge region (mouse, UniProt O70421 222-271, limits assumed).
T17 construct: domain: hinge region; also called mFzd1L
T17 peptide (looked up): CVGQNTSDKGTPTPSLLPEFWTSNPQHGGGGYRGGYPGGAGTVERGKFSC
Kind of experiment: SPR; *** = 100 nM > KD > 10 nM. The procedure: as §1

The target of experiment [2] is T18, human Fzd1 hinge region (human).
T18 construct: also called hFzd1L
T18 peptide: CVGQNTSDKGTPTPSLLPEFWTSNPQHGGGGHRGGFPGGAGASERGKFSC
The experiment is described as follows: SPR; *** = 100 nM > KD > 10 nM. The procedure:
as §1

The next experiment has as its target Fzd1 CRD (UniProt Q9UP38 105-232). Kind of experiment: BLI (Octet Red 96), biotinylated Fzd1 CRD on streptavidin biosensor. The procedure: Binding kinetics of monospecific Fzd binders to either (CRD) or the extracellular hinge region (hinge) was determined by bio-layer interferometry (BLI) using Octet Red 96 (PALL ForteBio, Fremont, Calif.) instruments at 30° C., 1000 rpm with streptavidin (SA) biosensors. N-terminal biotinylated Fzd1 or Fzd2 CRD and Fzd1 or Fzd 2 hinge proteins were captured on the SA biosensor. Following capture of biotinylated-Fzd1 or Fzd2, the SA biosensor with captured […] was dipped into wells containing the relevant antibodies at 7 different concentrations in running buffer plus a well with only running buffer as a reference channel. KD was determined by global fitting. As shown in FIGS. 4A-4H these antibody fusion proteins only bound to either Fzd1 or Fzd2 protein with the hinge region, and not to the CRD domains alone.
(In BLI a coated tip is dipped into the sample, and binding shifts an interference pattern.)

The next experiment addresses T19, hFzd2L (human, UniProt Q14332 150-201).
T19 construct: ELISA antigen; also called human Fzd2 hinge region; Frizzled 2
Kind of experiment: phage ELISA, antigen on plate. The procedure: Detection of bound phage was determined calorimetrically by turnover of TMB substrate (Thermo Fisher Scientific, Waltham, Mass.) at […] by anti-M13-HRP antibody (GE Healthcare, Pittsburgh, Pa.). Clones were identified as binding to a Fzd receptor when the fold OD 450 nm over background was greater than a threshold level.
In general terms: ELISA stands for enzyme-linked immunosorbent assay.

In experiment [3] the target is T17, mouse Fzd1 hinge region. Kind of experiment: SPR; ** = 1 uM > KD > 100 nM. The procedure:
as §1

Experiment [4] has as its target T18, human Fzd1 hinge region. Kind of experiment: SPR; ** = 1 uM > KD > 100 nM. The procedure:
as §1

B1: 033S-E02 (antibody, V domains shown)
VH: QVQLVQSGAEVKKPGSSVKVSCKASGGTFTSYAISWVRQAPGQGLEWMGMINPSGGRTTYAQKFQGRVTITADESTSTAYMKLSSLRSEDTAVYYCAIRTIFGVVIDYWGQGTLVTVSS
VL: not shown
notes: human IgG1, human kappa or lambda light chain; also called 33SE2
Usually KD stands for the concentration at which binding is half-saturated. Higher therefore signals a looser complex. In the case of B1, the binding result with mouse Fzd5 hinge region, with mouse Fzd3 hinge region, with human Fzd5 hinge region, in the experiment with mouse Fzd2 hinge region, in the experiment with human Fzd9 hinge region and in the experiment with mouse Fzd6 hinge region was “no binding (tested: 5 uM)” each time. Besides, the binding result with human Fzd10 hinge region, with mouse Fzd7 hinge region, with human Fzd2 hinge region, in the experiment with human Fzd6 hinge region, with mouse Fzd8 hinge region and with human Fzd3 hinge region was “no binding (tested: 5 uM)” throughout. The binding result with mouse Fzd4 hinge region, with mouse Fzd9 hinge region, with human Fzd4 hinge region and with mouse Fzd10 hinge region was “no binding (tested: 5 uM)” each time. Further, the KD with mouse Fzd1 hinge region [1] and in the experiment with human Fzd1 hinge region [2] was 10 to 100 nM each time.

B2: 033S-E02 Fab (Fab, V domains shown)
VH: QVQLVQSGAEVKKPGSSVKVSCKASGGTFTSYAISWVRQAPGQGLEWMGMINPSGGRTTYAQKFQGRVTITADESTSTAYMKLSSLRSEDTAVYYCAIRTIFGVVIDYWGQGTLVTVSS
VL: not shown
notes: also called 33SE2
In the case of B2, the binding result with Fzd1 CRD is listed as “no binding”.

B3: 031S-B02 (antibody, V domains shown)
VH: EVQLLESGGGLVQPGGSLRLSCAASGFTFSSYWMSWVRQAPGKGLEWVSAIGGSGANAYYADSVKGRFTISRDNSKNTLYLQMNSLRAEDTAVYYCVRDTNWAFDLWGQGTMVTVSS
VL: EIVMTQSPATLSVSPGERATLSCRASQSVSGSYLAWYQQKPGQAPRLLIYGASTRATGIPARFSGSGSGTEFTLTISSLQSEDFAVYYCQQYGSSPLTFGQGTKVEIK
notes: also called 31SB2
Turning to B3, the binding result with hFzd2L was “binds”.

B4: 033S-B03 Fab (Fab, V domains shown)
VH: QVQLVQSGAEVKKPGSSVKVSCKASGYTFTGQYMHWVRQAPGQGLEWMGGIIPIFGTAHYPQKFQGRVTITADESTSTAYMELSSLRSEDTAVYYCARRSVAAGTPFTDYWGQGTLVTVSS
VL: not shown
notes: also called 33SB3
Turning to B4, the binding result with Fzd1 CRD is reported as “no binding”.

B5: 033S-D02 (antibody, V domains shown)
VH: QVQLVQSGAEVKKPGSSVKVSCKASGITFTSSAVHWVRQAPGQGLEWLGIINPSGGSTSYAQKFQGRVTITADESTSTAYMELSSLRSEDTAVYYCARRMVYAPYKDVWGKGTMVTVSS
VL: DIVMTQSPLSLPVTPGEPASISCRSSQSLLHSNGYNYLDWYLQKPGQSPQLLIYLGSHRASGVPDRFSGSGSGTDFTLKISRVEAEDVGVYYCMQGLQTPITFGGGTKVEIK
notes: human IgG1, human kappa or lambda light chain; also called 33SD2
On to B5, for which the binding result with mouse Fzd5 hinge region, with mouse Fzd3 hinge region, in the experiment with human Fzd5 hinge region, with mouse Fzd2 hinge region, with human Fzd9 hinge region and in the experiment with mouse Fzd6 hinge region was “no binding (tested: 5 uM)” throughout. For the same molecule, the binding result in the experiment with human Fzd10 hinge region, with mouse Fzd7 hinge region, with human Fzd2 hinge region, with human Fzd6 hinge region, in the experiment with mouse Fzd8 hinge region and with human Fzd3 hinge region was “no binding (tested: 5 uM)” in each case. Further, the binding result in the experiment with mouse Fzd4 hinge region, with mouse Fzd9 hinge region, with human Fzd4 hinge region and with mouse Fzd10 hinge region was “no binding (tested: 5 uM)” throughout. Besides, the dissociation constant (KD) with mouse Fzd1 hinge region [3] and in the experiment with human Fzd1 hinge region [4] was 100 to 1000 nM throughout.

B6: 033S-D02 Fab (Fab, V domains shown)
VH: QVQLVQSGAEVKKPGSSVKVSCKASGITFTSSAVHWVRQAPGQGLEWLGIINPSGGSTSYAQKFQGRVTITADESTSTAYMELSSLRSEDTAVYYCARRMVYAPYKDVWGKGTMVTVSS
VL: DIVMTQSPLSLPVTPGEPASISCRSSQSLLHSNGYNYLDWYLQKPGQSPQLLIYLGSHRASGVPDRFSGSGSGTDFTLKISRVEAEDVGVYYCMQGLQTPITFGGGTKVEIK
notes: also called 33SD2
B6: the binding result with Fzd1 CRD was “no binding”.
